Like-named read-outs stand apart in the source and are kept apart here.
B1: 5'-TA-distal FeBABE probe (cb958/cb960) (dsDNA)
DNA 1: TAGCAATGTAATCGTCTATGACGTT
DNA 2: AACGTCATAGACGATTACATTGC
modifications: 5 phosphorothioates with FeBABE on strand 2 (after nt 2,4,6,8,10)
B2: 5'-TA-proximal FeBABE probe (cb958/cb961) (dsDNA)
DNA 1: TAGCAATGTAATCGTCTATGACGTT
DNA 2: AACGTCATAGACGATTACATTGC
modifications: 5 phosphorothioates with FeBABE on strand 2 (after nt 13,15,17,19,21)

Columns and labels:
[1] = molecular target: T1, Spo11 wild type (core complex subunit);Ski8;Rec102;Rec104 (Saccharomyces cerevisiae;Saccharomyces …, UniProt P23179;Q02793;Q02721;P33323 1-398;1-397;1-264;1-182, |||); test: FeBABE footprinting
[2] = molecular target: T1, Spo11 wild type (core complex …); test: FeBABE footprinting; remark: listed apart in the source

T1 sequence (P23179 whole entry, chain 1 of 4): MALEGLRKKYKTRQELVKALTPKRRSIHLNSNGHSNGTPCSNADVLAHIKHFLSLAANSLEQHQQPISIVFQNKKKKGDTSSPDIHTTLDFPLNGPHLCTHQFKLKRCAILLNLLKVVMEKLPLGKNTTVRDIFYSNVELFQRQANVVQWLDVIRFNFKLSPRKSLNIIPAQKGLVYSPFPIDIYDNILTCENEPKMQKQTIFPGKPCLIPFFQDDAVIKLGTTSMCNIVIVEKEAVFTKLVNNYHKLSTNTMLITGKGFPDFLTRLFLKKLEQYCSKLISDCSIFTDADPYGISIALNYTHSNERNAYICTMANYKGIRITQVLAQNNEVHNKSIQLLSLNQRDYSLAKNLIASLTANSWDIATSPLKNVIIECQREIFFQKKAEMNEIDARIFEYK
T1 sequence (Q02793 whole entry, chain 2 of 4): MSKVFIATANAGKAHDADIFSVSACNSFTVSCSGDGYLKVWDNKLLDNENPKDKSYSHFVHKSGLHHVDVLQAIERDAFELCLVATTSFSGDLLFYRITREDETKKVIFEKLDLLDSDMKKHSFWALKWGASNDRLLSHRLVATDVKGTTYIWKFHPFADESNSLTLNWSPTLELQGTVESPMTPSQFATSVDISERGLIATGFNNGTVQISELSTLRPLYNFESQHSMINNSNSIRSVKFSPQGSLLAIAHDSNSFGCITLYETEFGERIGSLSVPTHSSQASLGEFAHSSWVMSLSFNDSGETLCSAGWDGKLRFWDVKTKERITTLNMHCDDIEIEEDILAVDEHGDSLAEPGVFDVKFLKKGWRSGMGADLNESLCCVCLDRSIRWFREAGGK
T1 sequence (Q02721 whole entry, chain 3 of 4): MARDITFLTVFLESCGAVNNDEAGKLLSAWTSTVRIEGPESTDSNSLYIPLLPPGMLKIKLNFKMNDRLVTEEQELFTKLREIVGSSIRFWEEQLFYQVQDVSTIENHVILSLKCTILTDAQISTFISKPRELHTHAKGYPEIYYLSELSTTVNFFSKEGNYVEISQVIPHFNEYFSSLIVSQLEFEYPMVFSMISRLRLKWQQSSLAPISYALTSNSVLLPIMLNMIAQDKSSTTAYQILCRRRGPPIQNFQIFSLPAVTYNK
T1 sequence (P33323 whole entry, chain 4 of 4): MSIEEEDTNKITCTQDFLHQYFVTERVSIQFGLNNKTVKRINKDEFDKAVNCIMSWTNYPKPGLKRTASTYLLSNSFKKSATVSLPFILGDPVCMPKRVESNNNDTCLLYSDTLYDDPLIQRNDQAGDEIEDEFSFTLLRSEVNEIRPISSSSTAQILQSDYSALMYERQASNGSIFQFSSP

| Binder | binding result [1] | binding result [2] |
| --- | --- | --- |
| B1 | binds | – |
| B2 | – | binds |

Source: paper PMC7855791
